# From patent US20170190751A1 (published 2017)
# Changes are numbered by the printed parent chain.
# B1: I1 NGAL mutant (ligand)
# chain: QDSTSDLIPAPPLSSVPLQQNFQDNQFQGKWYVVGLAGNAILREDKDPQKMYATIYELKEDKSYNVTSVLFRDDGCDYWIRTFVPGCQPGEFTLGNIKSYPGLTSYLVRVVSTNYNQHAMVFFKKVSQNQEYFKITLYGRTKELTSELKENFIRFSKSLGLPENHIVFPVPIDQCIDG
# B2: C3 NGAL mutant (ligand)
# chain: B1 chain with K50T, R72Q, D73K, D74K, G75K, Q130R, K149Q, K157Q
# B3: K2 NGAL mutant (ligand)
# chain: B1 chain with K98Q, H118F, K149Q, H165N
# B4: F2 NGAL mutant (ligand)
# chain: B1 chain with S15K, K46E, K59Q, D73K, D74K, G75K, Q130R
# B5: K5 NGAL mutant (ligand)
# chain: B1 chain with K46E, D73K, D74K, G75K, K98Q, H118F, K149Q, H165N
# B6: H2 NGAL mutant (ligand)
# chain: B1 chain with D73K, D74K, G75K, K98Q, H118F, K149Q, H165N
# B7: G3 NGAL mutant (ligand)
# chain: B1 chain with S15K, D73K, D74K, G75K, Q130R, K157Q
# B8: D1 NGAL mutant (ligand)
# chain: B1 chain with S15K, Q130R
# B9: I3 NGAL mutant (ligand)
# chain: B1 chain with S15K, K62G, K98Q, Q130R
# B10: I5 NGAL mutant (ligand)
# chain: B1 chain with K62G
# B11: K3 NGAL mutant protein (ligand)
# chain: B1 chain with K46E, K98Q, H118F, K149Q, H165N
# B12: A2 NGAL mutant (ligand)
# chain: B1 chain with D73K, D74K, G75K, Q130R, R140Q, K142Q
# B13: B4 NGAL mutant (ligand)
# chain: B1 chain with S15K, K46E, D73K, D74K, G75K, K98Q, Q130R
# B14: K1 NGAL mutant (ligand)
# chain: B1 chain with K46E, K59Q, D73K, D74K, G75K, K98Q, H118F, K149Q, H165N
# Target: mouse megalin (mouse, UniProt A2ARV4 26-4660)
# Sequence (A2ARV4 26-4660 limits assumed): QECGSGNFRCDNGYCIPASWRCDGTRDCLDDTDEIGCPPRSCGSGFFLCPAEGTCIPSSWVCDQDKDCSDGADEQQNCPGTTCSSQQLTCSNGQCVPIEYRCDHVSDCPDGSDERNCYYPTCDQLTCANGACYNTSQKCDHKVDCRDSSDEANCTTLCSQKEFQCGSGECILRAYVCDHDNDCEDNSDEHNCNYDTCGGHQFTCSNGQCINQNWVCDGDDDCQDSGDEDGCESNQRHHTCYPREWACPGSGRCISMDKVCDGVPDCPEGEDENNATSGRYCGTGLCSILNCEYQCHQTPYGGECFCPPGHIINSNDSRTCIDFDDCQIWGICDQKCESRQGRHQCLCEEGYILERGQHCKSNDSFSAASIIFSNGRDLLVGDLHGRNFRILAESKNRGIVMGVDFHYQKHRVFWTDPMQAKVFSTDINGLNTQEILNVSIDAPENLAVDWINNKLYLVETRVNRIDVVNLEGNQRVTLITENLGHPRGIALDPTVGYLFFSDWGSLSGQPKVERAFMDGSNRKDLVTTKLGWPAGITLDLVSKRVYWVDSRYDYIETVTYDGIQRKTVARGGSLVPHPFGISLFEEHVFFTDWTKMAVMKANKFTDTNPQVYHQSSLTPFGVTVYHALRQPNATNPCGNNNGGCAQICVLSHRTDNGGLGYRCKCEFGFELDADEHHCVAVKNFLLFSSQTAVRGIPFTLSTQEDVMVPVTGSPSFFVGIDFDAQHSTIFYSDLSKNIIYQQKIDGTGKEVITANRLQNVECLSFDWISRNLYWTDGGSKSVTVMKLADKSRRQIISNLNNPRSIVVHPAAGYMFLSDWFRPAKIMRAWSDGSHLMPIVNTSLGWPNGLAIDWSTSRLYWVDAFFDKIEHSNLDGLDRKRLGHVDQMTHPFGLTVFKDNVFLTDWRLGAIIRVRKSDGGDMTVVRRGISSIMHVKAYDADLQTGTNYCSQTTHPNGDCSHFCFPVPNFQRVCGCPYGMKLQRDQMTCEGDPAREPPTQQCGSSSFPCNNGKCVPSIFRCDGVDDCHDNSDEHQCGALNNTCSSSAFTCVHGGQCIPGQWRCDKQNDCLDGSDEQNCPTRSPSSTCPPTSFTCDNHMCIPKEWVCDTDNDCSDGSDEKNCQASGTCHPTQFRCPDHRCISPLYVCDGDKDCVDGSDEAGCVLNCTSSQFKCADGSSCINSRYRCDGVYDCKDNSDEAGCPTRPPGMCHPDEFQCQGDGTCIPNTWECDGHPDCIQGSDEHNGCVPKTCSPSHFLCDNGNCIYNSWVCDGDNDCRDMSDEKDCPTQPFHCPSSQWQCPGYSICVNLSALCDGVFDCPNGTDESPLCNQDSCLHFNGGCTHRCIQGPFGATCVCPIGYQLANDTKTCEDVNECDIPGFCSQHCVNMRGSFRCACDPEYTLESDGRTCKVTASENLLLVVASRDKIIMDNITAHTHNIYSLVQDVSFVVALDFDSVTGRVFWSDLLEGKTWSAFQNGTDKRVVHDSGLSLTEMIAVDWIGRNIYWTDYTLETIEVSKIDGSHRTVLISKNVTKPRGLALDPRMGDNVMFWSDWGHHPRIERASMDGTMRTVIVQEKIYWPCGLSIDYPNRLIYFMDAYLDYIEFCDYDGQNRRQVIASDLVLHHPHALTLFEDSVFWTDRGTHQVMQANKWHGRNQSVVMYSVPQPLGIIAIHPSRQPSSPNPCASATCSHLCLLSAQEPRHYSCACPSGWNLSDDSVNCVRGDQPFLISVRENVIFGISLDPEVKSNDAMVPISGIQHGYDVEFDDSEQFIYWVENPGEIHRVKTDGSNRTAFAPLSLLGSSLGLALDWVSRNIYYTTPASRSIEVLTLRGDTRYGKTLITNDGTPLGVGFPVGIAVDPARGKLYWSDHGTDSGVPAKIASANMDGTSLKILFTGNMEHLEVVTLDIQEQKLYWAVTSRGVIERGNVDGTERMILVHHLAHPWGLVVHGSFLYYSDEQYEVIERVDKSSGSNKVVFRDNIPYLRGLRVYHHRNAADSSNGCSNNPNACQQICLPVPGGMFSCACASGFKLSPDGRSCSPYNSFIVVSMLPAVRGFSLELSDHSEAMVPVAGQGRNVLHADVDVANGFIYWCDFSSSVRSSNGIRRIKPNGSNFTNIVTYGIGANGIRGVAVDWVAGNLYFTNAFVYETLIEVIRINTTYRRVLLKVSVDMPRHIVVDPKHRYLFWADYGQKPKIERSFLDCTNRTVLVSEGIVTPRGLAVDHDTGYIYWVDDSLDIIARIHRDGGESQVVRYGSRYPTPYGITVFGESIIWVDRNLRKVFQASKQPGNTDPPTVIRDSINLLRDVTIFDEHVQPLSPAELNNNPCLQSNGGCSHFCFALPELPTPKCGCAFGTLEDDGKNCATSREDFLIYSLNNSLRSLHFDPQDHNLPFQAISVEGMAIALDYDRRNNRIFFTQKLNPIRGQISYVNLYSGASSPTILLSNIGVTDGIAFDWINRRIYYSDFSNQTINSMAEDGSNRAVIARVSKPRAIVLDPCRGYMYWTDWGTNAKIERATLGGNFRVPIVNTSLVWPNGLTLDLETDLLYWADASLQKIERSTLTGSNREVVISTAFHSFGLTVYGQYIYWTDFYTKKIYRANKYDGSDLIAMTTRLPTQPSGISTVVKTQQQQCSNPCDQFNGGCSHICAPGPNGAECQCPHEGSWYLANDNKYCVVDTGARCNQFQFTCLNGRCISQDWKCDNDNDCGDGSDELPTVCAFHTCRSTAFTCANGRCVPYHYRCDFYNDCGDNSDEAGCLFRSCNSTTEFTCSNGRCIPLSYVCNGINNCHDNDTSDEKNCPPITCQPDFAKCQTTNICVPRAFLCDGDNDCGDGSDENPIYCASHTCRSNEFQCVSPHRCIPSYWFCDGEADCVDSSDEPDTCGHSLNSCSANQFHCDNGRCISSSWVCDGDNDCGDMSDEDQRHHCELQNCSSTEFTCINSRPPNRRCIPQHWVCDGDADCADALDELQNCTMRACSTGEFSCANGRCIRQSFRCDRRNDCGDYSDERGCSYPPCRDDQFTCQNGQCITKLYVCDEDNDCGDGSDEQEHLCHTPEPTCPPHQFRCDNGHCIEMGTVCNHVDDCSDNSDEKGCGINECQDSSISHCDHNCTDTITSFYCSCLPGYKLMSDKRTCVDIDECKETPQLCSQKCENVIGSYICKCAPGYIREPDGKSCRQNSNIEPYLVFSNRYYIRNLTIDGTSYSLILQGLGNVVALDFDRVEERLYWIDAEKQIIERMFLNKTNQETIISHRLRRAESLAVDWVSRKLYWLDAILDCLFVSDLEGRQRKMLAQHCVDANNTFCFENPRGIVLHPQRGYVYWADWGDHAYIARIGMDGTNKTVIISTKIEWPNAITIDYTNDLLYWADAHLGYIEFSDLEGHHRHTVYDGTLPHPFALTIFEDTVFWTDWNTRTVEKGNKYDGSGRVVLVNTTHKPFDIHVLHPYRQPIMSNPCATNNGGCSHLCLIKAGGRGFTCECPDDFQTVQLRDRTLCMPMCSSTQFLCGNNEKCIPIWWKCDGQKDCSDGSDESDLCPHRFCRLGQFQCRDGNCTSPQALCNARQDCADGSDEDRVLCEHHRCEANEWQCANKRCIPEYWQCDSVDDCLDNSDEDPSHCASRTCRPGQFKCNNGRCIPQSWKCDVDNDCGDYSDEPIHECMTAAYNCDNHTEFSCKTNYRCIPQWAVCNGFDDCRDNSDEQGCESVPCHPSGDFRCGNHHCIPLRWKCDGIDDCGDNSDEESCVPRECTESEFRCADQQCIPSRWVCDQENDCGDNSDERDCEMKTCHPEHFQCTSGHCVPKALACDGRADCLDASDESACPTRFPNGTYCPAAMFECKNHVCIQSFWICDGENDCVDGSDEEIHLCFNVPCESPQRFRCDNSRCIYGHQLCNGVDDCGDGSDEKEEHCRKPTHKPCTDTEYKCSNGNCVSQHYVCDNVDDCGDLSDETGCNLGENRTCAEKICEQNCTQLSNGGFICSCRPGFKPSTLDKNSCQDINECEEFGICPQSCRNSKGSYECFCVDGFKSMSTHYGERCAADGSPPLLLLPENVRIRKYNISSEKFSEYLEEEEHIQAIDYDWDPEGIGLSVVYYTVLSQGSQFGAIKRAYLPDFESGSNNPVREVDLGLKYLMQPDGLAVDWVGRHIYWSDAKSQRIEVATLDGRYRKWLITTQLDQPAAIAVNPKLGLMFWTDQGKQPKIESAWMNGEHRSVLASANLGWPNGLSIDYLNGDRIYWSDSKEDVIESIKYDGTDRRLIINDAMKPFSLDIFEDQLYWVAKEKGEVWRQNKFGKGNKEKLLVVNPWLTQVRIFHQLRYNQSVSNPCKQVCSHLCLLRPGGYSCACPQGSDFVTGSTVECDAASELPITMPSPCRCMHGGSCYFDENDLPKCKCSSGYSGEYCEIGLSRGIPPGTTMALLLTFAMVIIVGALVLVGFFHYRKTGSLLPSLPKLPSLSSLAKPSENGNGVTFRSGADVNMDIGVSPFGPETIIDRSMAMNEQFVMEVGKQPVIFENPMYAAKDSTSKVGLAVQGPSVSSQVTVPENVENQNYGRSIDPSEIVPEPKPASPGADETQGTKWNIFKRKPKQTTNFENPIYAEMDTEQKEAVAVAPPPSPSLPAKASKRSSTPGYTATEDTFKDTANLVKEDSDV
# Experiment: cell-based or functional assay
row,% of i.p. injected NGAL-enterochelin-55Fe3+ complex delivered to mouse urine after 3 hours (escape from renal reabsorption) [%],Binder
1,6,B1
2,0.26,B2
3,9.3,B3
4,0.11,B4
5,2.9,B5
6,0.27,B6
7,0.17,B7
8,0.1,B8
9,6.9,B9
10,0.05,B10
11,19.6,B11
12,0.18,B12
13,0.13,B13
14,1.9,B14
